Measured values: PMC10107573

Molecular target: recombinant biotinylated SARS-CoV-2 spike RBD, wild type (SARS-CoV-2) (UniProt P0DTC2)
Experiment: BLI
Conditions: bispecific antibody

Substance | Kd [nM]
bispecific antibody BI-5B2C (IgG-ScFv format: 10-5B IgG with 6-2C ScFv) (from UniProt P01857) | 4.89
bispecific antibody BI-2C5B (IgG-ScFv format: 6-2C IgG with 10-5B ScFv) (from UniProt P01857) | 4.71
bispecific antibody BI-2C1C (IgG-ScFv format, from mAbs 6-2C and 13-1C) (from UniProt P01857) | 1.04
bispecific antibody BI-1C2C (IgG-ScFv format, from mAbs 13-1C and 6-2C) (from UniProt P01857) | 2.16
